Source: patent US20080107658A1 (AstraZeneca / MedImmune, published 2008)

How the values were obtained:
[1] = molecular target: T1, rat nerve growth factor (beta-NGF) (rat, UniProt P25427 122-241); test: purified scFv, inhibition of rat NGF binding to TrkA fusion protein
[2] = molecular target: T2, human nerve growth factor (beta-NGF) (human, UniProt P01138 122-241); test: purified scFv, inhibition of human NGF binding to TrkA fusion protein
[3] = molecular target: T2, human nerve growth factor (beta-NGF); test: cell-based or functional assay
[4] = molecular target: T1, rat nerve growth factor (beta-NGF); test: cell-based or functional assay
[5] = molecular target: mouse nerve growth factor (mouse, UniProt P01139 122-241); test: cell-based or functional assay
Sequence of mouse nerve growth factor (P01139 122-241): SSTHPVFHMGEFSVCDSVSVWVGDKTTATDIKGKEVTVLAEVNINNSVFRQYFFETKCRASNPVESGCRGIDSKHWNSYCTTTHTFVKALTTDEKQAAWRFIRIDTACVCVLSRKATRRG

T1 sequence (P25427 122-241): as the sequence (P01139 122-241) above, with A40G, R50K, S61P, E94D, T117A counted along it
T2 sequence (P01138 122-241): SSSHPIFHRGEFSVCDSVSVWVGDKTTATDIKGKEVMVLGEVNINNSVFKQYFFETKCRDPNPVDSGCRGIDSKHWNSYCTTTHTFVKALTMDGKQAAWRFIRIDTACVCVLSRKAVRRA

Binder | IC50 [1] | IC50 [2] | IC50, FLIPR calcium mobilisation [3] | IC50, PC12 cell survival [3] | IC50, FLIPR calcium mobilisation [4] | IC50, FLIPR calcium mobilisation [5]
1021E5 scFv (scFv, part only; not given: Linker and tags, V domains shown, not shown: another chain or arm of the molecule; small tags and cut ends) VH: EVQLVQSGAEVKKPGSSVKVSCKASGGTFSTYGISWVRQAPGQGLEWIGGIIPIFDTGNSAQSFQGRVTITADESTSTAYMEVSSLRSDDTAVYYCASSSRIYDYAGGDHYYYDMDVWGQGTMVTVSS VL: QAVLTQPSSVSTPPGQKVTISCSGSSSNIGNNYVSWYQQLPGTAPKLLIYDNNKRPSGIPDRFSGSKSGTSATLGITGLQTGDEADYYCGTWDSSLSAWVFGGGTKLTVL | 269 nM | 94 nM | – | – | – | –
1147D2 human IgG4 (antibody, V domains shown) VH: EVQLVQSGAEVKKPGSSVRISCKASGGTFSTYGVSWVRQAPGQGLEWIGGIIPIFDTGNSAQSFQGRVTITADESTSTAYMEVSSLRSDDTAVYYCASSSRIYDLNPSLTAYYDMDVWGQGTMVTVSS VL: QAVLTQPSSVSTPPGQKVTISCSGSSSNIGNNYVSWYQQLPGTAPKLLIYDNNKRPSGVPDRFSGSKSGTSATLGITGLQTGDEADYYCGTWDSSLSAWVFGGGTKLTVL | – | – | 0.36 nM | 0.51 nM | 0.21 nM | 0.24 nM
1150F1 human IgG4 (antibody, V domains shown) VH: EVQLVQSGAEVKKPGSSVKVSCKASGGTFSTYGISWVRQAPGQGLEWIGGIIPIFDTGNSAQSFQDRVTITADESTSTAYMEVGSLRSDDTAVYYCASSSRIYDLNPSLTAYYDMDVWGHGTMVTVSS VL: QAVLTQPSSVSTPPGQKVTISCSGSSSNIGNNYVSWYQQLPGTAPKLLIYDNNKRPSGIPDRFSGSKSGTSATLGITGLQTGDEADYYCGTWDSSLSAWVFGGGTKLTVL | – | – | 0.32 nM | 0.47 nM | 0.15 nM | 0.19 nM
1146D7 human IgG4 (antibody, V domains shown) VH: EVQLVQSGAEVKKPGSSVKVSCKASGGTFSTYGISWVRQAPGQGLEWIGGIIPIFDTGNSAQSFQGRVTITADESTSTAYMEVSSLRSDDTAVYYCASSSRIYDLNPSLTAYYDMDVWGQGTMVTVSS VL: QAVLTQPSSVSTPPGQEVTISCSGSSTNIGNNYVSWYQQLPGTAPKLLIYDNNKRPSGIPDRFSGSKSGTSATLGITGLQTGDEADYYCGTWDSSLSAWVFGGGTKLTVL | – | – | 0.38 nM | 0.48 nM | 0.33 nM | 0.31 nM
1160E3 scFv (scFv, V domains shown, also called LOT1160E03) VH: EVQLVQSGAEVKKPGSSAKVSCKASGGTFSTYGISWVRQAPGQGLEWIGGIIPIFDTGNSAQSFQGRVTITADESTSTAYMEVSSLRSDDTAVYYCASSSRIYDLNPSLTAYYDMDVWGQGTMVTVSS VL: QAVLTQPSSVSTPPGQKVTISCSGSNSNIGNNYVSWYQQLPGTAPKLLIYDNNKRPSGIPDRFSGSKSGTSATLGITGLQTGDEADYYCGTWDSSLSAWVFGGGTKLTVL | 0.22 nM | 0.14 nM | – | – | – | –
1131H2 scFv (scFv, V domains shown, also called LOT1131H02) VH: EVQLVQSGAEVKKPGSTVKVSCKASGGTFSTYGISWVRQAPGQGLEWIGGIIPIFDTGNSAQSFQGRVTITADESTSTAYMEVSSLRSDDTAVYYCASSSRIYDLNPSLTAYYDMDVWGQGTMVTVSS VL: QAVLTQPSSVSTPPGQKVTISCSGTSSNIGNNYVSWYQQLPGTAPKLLIYDNNKRPSGIPDRFSGSKSGTSATLGITGLQTGDEADYYCGTWDSSLSAWVFGGGTKLTVL | 0.09 nM | < 0.01 nM | – | – | – | –
1134D9 scFv (scFv, V domains shown, also called LOT1134D09) VH: EVQLVQSGAEVKKPGSSVKVSCKASGGTFSTYGISWVRQAPGQGLEWIGGIIPIFDTGNSAQSFQGRVAITADESTSTAYMEVSSLRSDDTAVYYCASSSRIYDLNPSLTAYYDMDVWGQGTMVTVSS VL: QAVLTQPSSVSTPPGQKVTISCSGSSSNIGNNYVSWYQQLPGTAPKLLIYDNNKRPSGIPDRFSGSKSGTSATLGITGLQTGDEADYYCGTWDSGLSAWVFGGGTKLTVL | 0.2 nM | 0.14 nM | – | – | – | –
1146D7 scFv (scFv, V domains shown, also called LOT1146D07) VH: EVQLVQSGAEVKKPGSSVKVSCKASGGTFSTYGISWVRQAPGQGLEWIGGIIPIFDTGNSAQSFQGRVTITADESTSTAYMEVSSLRSDDTAVYYCASSSRIYDLNPSLTAYYDMDVWGQGTMVTVSS VL: QAVLTQPSSVSTPPGQEVTISCSGSSTNIGNNYVSWYQQLPGTAPKLLIYDNNKRPSGIPDRFSGSKSGTSATLGITGLQTGDEADYYCGTWDSSLSAWVFGGGTKLTVL | 0.02 nM | 0.23 nM | – | – | – | –
1132H9 scFv (scFv, V domains shown, also called LOT1132H09) VH: EVQLVQSGAEVKKPGSSVKVSCKASGGTFSTYGISWVRQAPGQGLEWIGGIIPIFDTGNSAQSFQGRVTITADESTSTAYMEVSSLRSDDTAVYYCASSSRIYDLNPSLTAYYDMDVWGQGTMVTVSS VL: QAVLTQPSSVSTPPGQKVTISCSGSSSDIGNNYVSWYQQLPGTAPKLLIYDNNKRPTGIPDRFSGSKSGTSATLGITGLQTGDEADYYCGTWDSSLSAWVFGGGTKLTVL | 0.68 nM | 0.54 nM | – | – | – | –
1165D4 scFv (scFv, V domains shown, also called LOT1165D04) VH: EVQLVQSGAEVKKPGSSVKVSCKASGGTFSTYGISWVRQAPGQGLEWIGGIIPIFDTGNSAQSFQGRVTITADESTSTAYMEVSSLRSDDTAVYYCASSSRIYDLNPSLTAYYDMDVWGQGTMVTVSS VL: QAVLTQPSSVSTPPGQKVTISCSGSSSNIENNYVSWYQQLPGTAPKLLIYDNNKRPSGIPDRFSGSKSGTSATLGITGLQTGDEADYYCGTWDSSLSAWVFGGGTKLTVL | 0.29 nM | 0.11 nM | – | – | – | –
1150F1 scFv (scFv, V domains shown, also called LOT1150F01) VH: EVQLVQSGAEVKKPGSSVKVSCKASGGTFSTYGISWVRQAPGQGLEWIGGIIPIFDTGNSAQSFQDRVTITADESTSTAYMEVGSLRSDDTAVYYCASSSRIYDLNPSLTAYYDMDVWGHGTMVTVSS VL: QAVLTQPSSVSTPPGQKVTISCSGSSSNIGNNYVSWYQQLPGTAPKLLIYDNNKRPSGIPDRFSGSKSGTSATLGITGLQTGDEADYYCGTWDSSLSAWVFGGGTKLTVL | 0.16 nM | 0.2 nM | – | – | – | –
1147D2 scFv (scFv, V domains shown, also called LOT1147D02) VH: EVQLVQSGAEVKKPGSSVRISCKASGGTFSTYGVSWVRQAPGQGLEWIGGIIPIFDTGNSAQSFQGRVTITADESTSTAYMEVSSLRSDDTAVYYCASSSRIYDLNPSLTAYYDMDVWGQGTMVTVSS VL: QAVLTQPSSVSTPPGQKVTISCSGSSSNIGNNYVSWYQQLPGTAPKLLIYDNNKRPSGVPDRFSGSKSGTSATLGITGLQTGDEADYYCGTWDSSLSAWVFGGGTKLTVL | 0.1 nM | < 0.01 nM | – | – | – | –
1147G9 scFv (scFv, V domains shown, also called LOT1147G09) VH: EVQLVQSGAEVKKPGSSVKVSCKASGGTFSAYGISWVRQAPGQGLEWIGGIIPIFNTGNSAQSFQGRVTITADESTSTAYMEVSSLRSDDTAVYYCASSSRIYDLNPSLTAYYDMDVWGQGTMVTVSS VL: QAVLTQPSSVSTPPGQKVTVSCSGSSSNIGNNYVSWYQQLPGTAPKLLIYDNNKRPSGIPDRFSGSKSGTSATLGITGLQTGDEADYYCGTWDSSLSAWVFGGGTKLTVL | 0.01 nM | 0.25 nM | – | – | – | –
1133C11 scFv (scFv, V domains shown, also called LOT1133C11) VH: EVQLVQSGAEVKKPGSSVKVSCKASGGTFSTYGISWVRQAPGQGLEWIGGIIPIFDTGNSAQSFQGRVTITADESTSTAYMEVSSLRSDDTAVYYCASSSRIYDLNPSLTAYYDMDVWGQGTMVTVSS VL: QAVLTQPSSVSTPPGQKVTISCSGSSSNIGNNYVSWYQQLPGTAPKLLIYDNNKRPSGIPDRFSGSKSGTSATLGITGLQTGDEADYYCGTWDSSLSAWVFGGGTKLTVL | 1.24 nM | 1.93 nM | – | – | – | –
